# From patent US12364734B2, “Methods of treating Alzheimers disease” (NUtech Ventures, priority 2020, dated 2025)
# Key:
# [1] = Water solubility of the peptide; format: physicochemical
# APP [2] = target: T1, APP (Homo sapiens, UniProt P05067); assay: APP protein stability assay with cycloheximide (CHX) in HEK293 cells; format: cell-based; set-up: expressed in transfected cells; host or cells: HEK293; conditions: HEK293 co-transfected with APP plasmid plus P2 or BSA; CHX for one hour
# Target sequence in this assay (P05067 18-695 isoform P05067-4 limits assumed): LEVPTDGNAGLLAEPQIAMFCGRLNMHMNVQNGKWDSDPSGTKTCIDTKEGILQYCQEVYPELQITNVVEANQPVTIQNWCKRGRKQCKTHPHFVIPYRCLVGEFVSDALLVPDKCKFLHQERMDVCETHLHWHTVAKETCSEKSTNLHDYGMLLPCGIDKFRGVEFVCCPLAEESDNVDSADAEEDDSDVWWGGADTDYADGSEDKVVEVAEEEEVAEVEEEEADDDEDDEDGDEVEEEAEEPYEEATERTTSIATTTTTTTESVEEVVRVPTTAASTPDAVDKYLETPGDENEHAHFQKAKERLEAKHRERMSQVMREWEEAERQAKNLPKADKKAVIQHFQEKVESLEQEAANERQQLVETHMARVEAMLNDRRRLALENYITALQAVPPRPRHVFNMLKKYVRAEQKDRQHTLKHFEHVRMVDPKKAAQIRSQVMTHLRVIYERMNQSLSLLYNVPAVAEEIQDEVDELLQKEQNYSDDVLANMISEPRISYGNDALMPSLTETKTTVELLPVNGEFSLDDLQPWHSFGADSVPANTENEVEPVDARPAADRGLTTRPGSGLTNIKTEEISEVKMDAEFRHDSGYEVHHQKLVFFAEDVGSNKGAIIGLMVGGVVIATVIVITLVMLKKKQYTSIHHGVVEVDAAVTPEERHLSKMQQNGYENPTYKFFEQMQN
# APP [3] = target: T1, APP; assay: APP expression in HEK293 cells with P2 peptide (Western blot); format: cell-based; set-up: expressed in transfected cells; host or cells: HEK293
# Target sequence in this assay (P05067 18-695 isoform P05067-4 limits assumed): as above
# [4] = target: T2, Epstein-Barr virus latent membrane protein 1 (LMP1) (Epstein-Barr virus, UniProt P03230); assay: LMP1 expression in HEK293 cells co-transfected with P2 peptide (specificity control); format: cell-based; conditions: HEK293 co-transfected with LMP1 expression plasmid and P2 peptide with PULSin
# T2 construct: expressed in transfected cells; host or cells: HEK293
# Text: FIGS. 6A-6B: FIG. 6A. HEK293 cells were transfected with EBV LMP1 expression plasmid or vector control (pcDNA3). One day later, the cells were infected with or without ZIKV overnight as in FIG. 2a. Western blots were used for detection of LMP1 and tubulin simultaneously. The images in the same box indicate they were derived from the same gels. The identity of the proteins is as shown. FIG. 6B. HEK293 cells were co-transfected with different amounts of LMP1 expression plasmid and P2 peptide, or BSA protein ([…]) with PULSin reagents. One day later, the expression of APP and tubulin were examined simultaneously by Western Blot analyses. The identity of the proteins is as shown.
# We suspected that the loop in the specific structure of ZIKV E protein was responsible for the potential interaction with APP (FIGS. 1A and 1B). A peptide (P2) derived from the potential binding site, the β-hairpin region, was synthesized with sequence optimization (FIG. 1C). Located in the core region of the ZIKV E protein and being hydrophobic, the eight amino acid stretch, EYRIMLSV, in the β-hairpin region of E protein was not included in the P2 sequence. Furthermore, the P2 peptide could potentially form a similar structure as in the native protein by including extra amino acids in the C-terminus (FIGS. 1B and 1C). […]
# APP [5] = target: T1, APP; assay: P2 effect on APP processing and amyloid formation (Western blot, immunofluorescence); format: cell-based
# Target sequence in this assay (P05067 18-770, species assumed): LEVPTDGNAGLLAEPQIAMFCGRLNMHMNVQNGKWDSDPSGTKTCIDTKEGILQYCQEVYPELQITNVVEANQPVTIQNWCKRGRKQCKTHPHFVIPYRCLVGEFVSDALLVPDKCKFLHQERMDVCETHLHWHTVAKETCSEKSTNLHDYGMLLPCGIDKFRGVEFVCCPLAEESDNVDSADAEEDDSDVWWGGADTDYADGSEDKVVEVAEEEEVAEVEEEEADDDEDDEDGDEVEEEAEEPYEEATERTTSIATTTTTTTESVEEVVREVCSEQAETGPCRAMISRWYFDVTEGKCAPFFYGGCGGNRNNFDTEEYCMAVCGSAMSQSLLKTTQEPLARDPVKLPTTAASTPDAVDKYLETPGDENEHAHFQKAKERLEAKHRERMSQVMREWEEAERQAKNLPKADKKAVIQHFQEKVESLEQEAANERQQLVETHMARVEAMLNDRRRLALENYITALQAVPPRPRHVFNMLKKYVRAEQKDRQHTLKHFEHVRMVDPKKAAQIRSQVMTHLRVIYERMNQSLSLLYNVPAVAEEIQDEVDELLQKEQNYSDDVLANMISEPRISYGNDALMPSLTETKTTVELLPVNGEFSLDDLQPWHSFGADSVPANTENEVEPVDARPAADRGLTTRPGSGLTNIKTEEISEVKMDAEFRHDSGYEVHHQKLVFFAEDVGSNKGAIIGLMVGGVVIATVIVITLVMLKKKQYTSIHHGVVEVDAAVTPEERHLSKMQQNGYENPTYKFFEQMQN
# T2 sequence (P03230 whole entry): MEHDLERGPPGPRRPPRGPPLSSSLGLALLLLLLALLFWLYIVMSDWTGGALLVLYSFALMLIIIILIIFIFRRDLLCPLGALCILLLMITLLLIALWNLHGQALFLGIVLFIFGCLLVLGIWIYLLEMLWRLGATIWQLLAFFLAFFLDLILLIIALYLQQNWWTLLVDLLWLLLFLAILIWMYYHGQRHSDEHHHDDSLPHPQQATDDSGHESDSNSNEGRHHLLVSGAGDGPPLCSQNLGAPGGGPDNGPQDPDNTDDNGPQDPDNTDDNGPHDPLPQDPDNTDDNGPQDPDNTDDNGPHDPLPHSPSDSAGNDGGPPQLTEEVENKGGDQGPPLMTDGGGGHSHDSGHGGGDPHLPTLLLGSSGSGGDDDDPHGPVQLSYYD
sequence,measurement,setting,value
"HGSQHSGMIVNDTGHETDENRAKVEITPNSPRAEATLGGFGSLGL (listed as Zika virus) [P2, peptide derived from the β-hairpin region of ZIKV E protein, without EYRIMLSV stretch]",water solubility,[1],water-soluble
same,mechanism of APP enhancement (APP protein stability),APP [2],a similar mechanism to ZIKV was established
same,APP expression,"APP [3]; HEK293 co-transfected with APP695 plasmid (0.5 μg) and P2 peptide (1 μg) with PULSin, compared with BSA control, one day later",could increase the expression of APP
same,APP expression,APP [3]; treating cells directly with peptide (data not shown),could not enhance APP expression
same,LMP1 expression,[4],could not be enhanced
same,APP metabolic processing,"APP [5]; Example 4, FIG. 13",block APP metabolic processing
same,interaction with APP,"APP [5]; Example 4, FIG. 13",interacts with APP
same,amyloid formation,APP [5]; Western blot (FIG. 13A) and immunofluorescence (FIG. 13B),reduces amyloid formation
